Reference: patent US20240398942A1 (CHIA TAI TIANQING PHARMACEUTICAL GROUP, published 2024)

Legend:
[1] = target: T1, full-length human CD40 on 293T-NF-κB-Luc-CD40 reporter cells (human, UniProt P25942 21-277); experiment: flow cytometry (FACS) on 293T-CD40 cells stably expressing full-length human CD40, PE-labeled goat anti-human IgG Fc, MFI
T1 construct: Stably expressed full-length human CD40; also called uniprot P25942-1
Experimental: The binding of the anti-CD40 antibody to 293T-CD40 cells (prepared by Biosion) that stably express full-length human CD40 (uniprot #P25942-1, SEQ ID NO: 30) on the cell membrane was measured by flow cytometry (FACS). According to the instructions of lipofectamine 3000 transfection reagent (Thermo Fisher), 293T-CD40 cells were prepared by transfecting 293T cells with pCMV-T-P plasmid inserted with CD40 coding sequence between EcoRI and XbaI loci. Specifically, 293T-CD40 cells were harvested from cell culture flasks, washed twice, and resuspended in FACS buffer (phosphate buffered saline (PBS) containing 2% v/v of fetal bovine serum). The anti-CD40 antibody of the present application or the benchmark serially 4-fold diluted in the FACS buffer from 80 nM was added at 100 μL/well to a 96-well plate containing 2×10⁵ cells/well. The plate was incubated in an ice bath for 40 min. After the cells were washed twice with the FACS buffer, an affinity-purified R-phycoerythrin-labeled goat anti-human IgG (Fcγ fragment-specific, Jackson Immuno Research, Cat. No. 109-115-098, 1:1000 diluted in the FACS buffer) was added at 100 μL per well. After incubation at 4° C. for 40 min in the dark, the cells were washed thrice and resuspended in the FACS buffer. Fluorescence values were measured using Becton Dickinson FACS Canto II-HTS, and curves of fluorescence value vs. antibody concentration were plotted. Data were analyzed using Graphpad Prism software, and EC₅₀ values were obtained.

human CD40-Fc protein [2] = target: T2, human CD40-Fc protein (human, biotinylated (sites not given) in the capture ELISA and the benchmark blocking ELISA; not biotinylated in the ligand blocking ELISA); experiment: capture ELISA: antibody captured on coated goat anti-human IgG F(ab')2, biotinylated human CD40-Fc 1.15 nM, streptavidin-HRP, OD(450-630)
T2 construct: also called biotinylated human CD40-Fc
Experimental: The plate was washed once with a washing buffer (PBS+0.05% v/v of Tween-20, PBST) and then blocked with 200 μL/well blocking buffer (PBST containing 5% w/v of skim milk) for 2 h at 37° C. The plate was washed 4 times, and the anti-CD40 antibody of the present application, BM1, BM2, and a negative control hIgG (human immunoglobulin for intravenous injection (pH 4), Hualan Biological Engineering Inc.) serially 5-fold diluted from 66.7 nM in a PBST containing 2.5% w/v of skim milk was added at 100 μL per well. The plate was incubated for 40 min at 37° C. and washed 4 times. A biotinylated human CD40-Fc protein (amino acid residues 21-193 of SEQ ID NO: 30 linked to the N terminus of amino acid residues 99-330 of SEQ ID NO: 28, dissolved in PBST containing 2.5% w/v of skim milk at a concentration of 1.15 nM) was added at 100 μL/well to a 96-well plate coated with the anti-CD40 antibody. The plate was incubated at 37° C. for 40 min and washed 4 times. An HRP-labeled streptavidin (diluted at 1:10000 in PBST, Jackson Immuno Research, Cat. No. 016-030-084) was added at 100 μL/well, and the plate was incubated at 37° C. for another 40 min. After the last wash, 100 μL/well of ELISA substrate TMB (Innoreagents, Cat. No. TMB-S-002) was added and the plate was incubated at room temperature. After 3-10 min, the reaction was stopped by adding 1 M H₂SO₄ at 50 µL/well, and the absorbance of each well was read on a microplate reader using the dual wavelength mode (TMB detection wavelength: 450 nm, reference wavelength: 630 nm). Curves of OD(450-630) values vs. antibody concentration were plotted. Data were analyzed using Graphpad Prism software, and EC₅₀ values were obtained.

human CD40-Fc protein [3] = target: T2, human CD40-Fc protein; experiment: competitive ELISA: human CD40-Fc coated, antibody titrated, blocked ligand biotinylated human CD40L-his (95 ng/mL), streptavidin-HRP, OD(450-630)
Experimental: The ability of the anti-CD40 antibody to block the binding of CD40 to CD40L was determined by competitive ELISA. Briefly, a human CD40-Fc protein (amino acid residues 21-193 of SEQ ID NO: 30 linked to the N terminus of amino acid residues 99-330 of SEQ ID NO: 28) dissolved in the immobilization buffer (carbonate/bicarbonate buffer) at a concentration of 2 μg/mL was immobilized on a 96-well plate at 100 μL/well and incubated overnight at 4° C. The next day, the plate was washed once with a washing buffer (PBS+0.05% v/v of Tween-20, PBST) before a PBST containing 5% w/v of skim milk was added. The plate was then incubated at 37° C. for 2 h for blocking. The plate was then washed 4 times with the washing buffer.
The anti-CD40 antibody of the present application or the benchmark was serially 5-fold diluted from 200 nM in a PBST containing 2.5% w/v of skim milk, and the serially diluted anti-CD40 antibody or benchmark was added at 100 μL/well to a plate coated with CD40-Fc protein and incubated at 37° C. for 40 min. The plate was then washed 4 times with the washing buffer before a biotinylated human CD40L-his protein (Sino Biological Inc., Cat. No. 10239-H08E, 95 ng/mL) was added at 100 μL per well. The plate was then incubated for 40 min at 37° C. The plate was washed again with the washing buffer. Then, an HRP-labeled streptavidin (Jackson Immunoresearch, Cat. No. 016-030-084, 1:10000 diluted in PBST buffer) was added at 100 μL/well and the plate was incubated at 37° C. for 40 min. The plate was washed again with the washing buffer. Finally, TMB was added and the reaction was stopped by adding 1 M H₂SO₄. The absorbance of each well was read on a microplate reader using the dual wavelength mode (TMB detection wavelength: 450 nm, reference wavelength: 630 nm). Curves of OD(450-630) values vs. antibody concentration were plotted. Data were analyzed using Graphpad Prism software, and IC₅₀ values were obtained.

Row | Binder | EC50 [1] [nM] | EC50 (human CD40-Fc protein [2]) [nM] | IC50 (human CD40-Fc protein [3]) [nM]
1 | humanized antibody huC1H1-V1 (antibody, human IgG2, kappa, V domains shown, Human IgG2 / kappa) VH: EVQLVESGGGLVKPGGSLRLSCAASGFTFSNYGISWVRQAPGKGLEWVASISSGGDNTYYPDNVKGRFTISRDNAKNSLYLQMNSLRAEDTAVYYCARAGEKAMDYWGQGTLVTVSS VL: EIVLTQSPATLSLSPGERATLSCRASQTINNNLHWYQQKPGQAPRLLIKYASQSISGIPARFSGSGSGTDFTLTISSLEPEDFAVYFCQQFSSWPLTFGGGTKVEIKR | 4.95 | 0.574 | 7.91
2 | humanized antibody huC1H1-V2 (antibody, human IgG2, kappa, V domains shown, Human IgG2 / kappa) VH: EVQLVESGGGLVKPGGSLRLSCAASGFTFSNYGISWVRQAPGKGLEWVSSISSGGDNTYYPDNVKGRFTISRDNAKNSLYLQMNSLRAEDTAVYYCARAGEKAMDYWGQGTLVTVSS VL: EIVLTQSPATLSLSPGERATLSCRASQTINNNLHWYQQKPGQAPRLLIKYASQSISGIPARFSGSGSGTDFTLTISSLEPEDFAVYFCQQFSSWPLTFGGGTKVEIKR | 4.64 | 0.424 | 6.1
3 | BM2 (selicrelumab) (antibody, human IgG2, kappa, V domains shown, Benchmark antibody, prepared in-house; also called CD40-BM2; benchmark) VH: not shown VL: DIQMTQSPSSVSASVGDRVTITCRASQGIYSWLAWYQQKPGKAPNLLIYTASTLQSGVPSRFSGSGSGTDFTLTISSLQPEDFATYYCQQANIFPLTFGGGTKVEIKR | 3.52 | 0.72 | 7.22

Binders with a lower EC50 [1], results first:

Row | EC50 [1] [nM] | EC50 (human CD40-Fc protein [2]) [nM] | IC50 (human CD40-Fc protein [3]) [nM] | Binder
4 | 1.44 | 0.141 | 6.46 | mouse anti-CD40 monoclonal antibody C1H1 (antibody, V domains shown, Parent mouse antibody from a hybridoma; the mouse constant regions are not; also called Mouse C1H1) VH: EVKLVESGGGLVKPGASLKLSCAASGFTFSNYGISWVRQTSDKRLEWVASISSGGDNTYYPDNVKGRFTISRENAKNTLYLQMSSLKSEDTALYYCARAGEKAMDYWGQGTSVTVSS VL: DIVLTQSPVTLSVTPGDSVSLSCRASQTINNNLHWYQQKSHESPRLLIKYASQSISGIPSRFSGSGSGTDFTLSINSVETEDFGIYFCQQFSSWPLTFGAGTKLELK
5 | 2.13 | 0.198 | 6.97 | chimeric antibody C1H1 (antibody, human IgG1, kappa, V domains shown, also called Chimeric C1H1) VH: EVKLVESGGGLVKPGASLKLSCAASGFTFSNYGISWVRQTSDKRLEWVASISSGGDNTYYPDNVKGRFTISRENAKNTLYLQMSSLKSEDTALYYCARAGEKAMDYWGQGTSVTVSS VL: DIVLTQSPVTLSVTPGDSVSLSCRASQTINNNLHWYQQKSHESPRLLIKYASQSISGIPSRFSGSGSGTDFTLSINSVETEDFGIYFCQQFSSWPLTFGAGTKLELKR
6 | 0.375 | 0.101 | 2.01 | BM1 (dacetuzumab) (antibody, human IgG1, kappa, V domains shown, Benchmark antibody, prepared in-house; also called CD40-BM1; benchmark) VH: EVQLVESGGGLVQPGGSLRLSCAASGYSFTGYYIHWVRQAPGKGLEWVARVIPNAGGTSYNQKFKGRFTLSVDNSKNTAYLQMNSLRAEDTAVYYCAREGIYWWGQGTLVTVSS VL: DIQMTQSPSSLSASVGDRVTITCRSSQSLVHSNGNTFLHWYQQKPGKAPKLLIYTVSNRFSGVPSRFSGSGSGTDFTLTISSLQPEDFATYFCSQTTHVPWTFGQGTKVEIKR
